Target: T1, preformed t-SNARE heterodimers (syntaxin 1A and SNAP-25B) in PS-free proteoliposomes (rat | mouse, UniProt P32851 1-288; P60879-1 1-206)
T1 construct: syntaxin-1A, rat, full-length cDNA; SNAP-25B, mouse; the sentence 'cDNA encoding full-length rat syntaxin-1A, mouse SNAP-25B and mouse synaptobrevin-2' is read as full length for all three; also called t-SNAREs; t-SNARE vesicles; source: pTrcHis vector, purified by the N-terminal His6-tag; reconstituted into PS-free vesicles
Test: co-flotation; 11 uM syt cytoplasmic domain mixed with 45 ul PS-free t-SNARE vesicles in 25 mM HEPES-KOH pH 7.4, 100 mM KCl, 10% glycerol, 1 mM dithiothreitol; 0.2 mM EGTA or 1 mM free Ca2+; RT 45 min; Accudenz gradient, 287,000g; SDS-PAGE, Coomassie blue, densitometry
Details: both partners purified

T1 sequence (P32851 whole entry, chain 1 of 2): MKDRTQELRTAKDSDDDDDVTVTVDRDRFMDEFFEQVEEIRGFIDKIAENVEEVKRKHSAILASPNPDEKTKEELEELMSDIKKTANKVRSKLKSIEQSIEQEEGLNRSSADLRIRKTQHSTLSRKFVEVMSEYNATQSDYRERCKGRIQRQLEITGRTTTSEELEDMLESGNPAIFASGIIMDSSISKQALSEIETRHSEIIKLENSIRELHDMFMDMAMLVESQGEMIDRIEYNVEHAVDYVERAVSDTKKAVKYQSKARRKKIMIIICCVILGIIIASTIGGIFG
T1 sequence (P60879 whole entry, chain 2 of 2): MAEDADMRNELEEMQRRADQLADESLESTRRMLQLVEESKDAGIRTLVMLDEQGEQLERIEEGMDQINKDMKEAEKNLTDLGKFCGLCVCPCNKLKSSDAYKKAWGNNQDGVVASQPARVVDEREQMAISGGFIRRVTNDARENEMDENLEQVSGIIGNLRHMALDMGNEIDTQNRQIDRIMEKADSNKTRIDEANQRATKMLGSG

B1: wild-type cytoplasmic domain of synaptotagmin 1 (residues 96-421) (domain or fragment, rat, UniProt P21707 96-421, looked up)
chain: GGKNAINMKDVKDLGKTMKDQALKDDDAETGLTDGEEKEEPKEEEKLGKLQYSLDYDFQNNQLLVGIIQAAELPALDMGGTSDPYVKVFLLPDKKKKFETKVHRKTLNPVFNEQFTFKVPYSELGGKTLVMAVYDFDRFSKHDIIGEFKVPMNTVDFGHVTEEWRDLQSAEKEEQEKLGDICFSLRYVPTAGKLTVVILEAKNLKKMDVGGLSDPYVKIHLMQNGKRLKKKKTTIKKNTLNPYYNESFSFEVPFEQIQKVQVVVTVLDYDKIGKNDAIGKVFVGYNSTGAELRHWSDMLANPRRPIAQWHTLQVEEEVDAMLAVKK
notes: synaptotagmin 1, rat, cytoplasmic domain with the tandem C2-domains C2A and C2B, residues 96-421; the D374 of the original cDNA was corrected to glycine; The native linker between C2A and C2B is residues 264-272, SAEKEEQEK; Residue 374 is glycine after correction of the cDNA; also called WT syt; syt
B1: binds.
